Experiments:
[1] = tested on: TRX-EK-hIFNa [thioredoxin: P0AA25]
TRX-EK-mIL15 = target: T1, TRX-EK-mIL15 (UniProt P48346)
T1 sequence: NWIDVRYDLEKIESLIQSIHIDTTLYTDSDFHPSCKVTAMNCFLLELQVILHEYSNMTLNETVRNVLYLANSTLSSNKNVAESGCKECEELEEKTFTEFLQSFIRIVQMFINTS

H-GST-T-mLIF = H-GST-T-mLIF (UniProt P09056)
H-GST-DEVD/S-mLIF = H-GST-DEVD/S-mLIF (UniProt P09056)
H-GST-DEVD/mLIF = H-GST-DEVD/mLIF (UniProt P09056)

Sequence of TRX-EK-hIFNa [thioredoxin: P0AA25] (P0AA25 whole entry, looked up): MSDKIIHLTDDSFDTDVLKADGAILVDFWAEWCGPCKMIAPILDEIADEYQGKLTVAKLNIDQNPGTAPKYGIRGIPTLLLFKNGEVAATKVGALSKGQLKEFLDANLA

For Enterokinase, the “processing of the fusion protein (gel, FIG. 3b)” value [1] was 16 h incubation with Enterokinase resulted in only a minor amount of processing of the fusion protein and the “cleavage of the fusion protein (gel, FIG. 3a)” value (TRX-EK-mIL15) was “Cleavage with enterokinase required a long incubation time in order to process the molecule. In the end, the molecule was processed”.

With Thrombin the “time needed for processing” value (H-GST-T-mLIF) was “up to 16 h were needed to process the H-GST-T-mLIF fusion protein with Thrombin”.

reverse Caspase-7 was tested, and the “cleavage of the fusion protein (gel, FIG. 7)” value (“cleavage … (gel, FIG. 7)” for short) (GST-C-hIFNα) was “Both mLIF and hIFN alpha were cut efficiently using Either Caspase-3 or reverse Caspase-7, with either the recognition site DEVD/ or DEVD/S”, the “cleavage … (gel, FIG. 7)” value (H-GST-DEVD/S-mLIF) was “Both mLIF and hIFN alpha were cut efficiently using Either Caspase-3 or reverse Caspase-7, with either the recognition site DEVD/ or DEVD/S” and the “cleavage … (gel, FIG. 7)” value (H-GST-DEVD/mLIF) was “Both mLIF and hIFN alpha were cut efficiently using Either Caspase-3 or reverse Caspase-7, with either the recognition site DEVD/ or DEVD/S”.

Reference: patent US20060099689
